Source: paper PMC13581288, “The chromokinesin Kid (KIF22) forms a homodimer, moves processively along microtubules, and transports double-stranded DNA” (eLife, 2024)

B1: full-length human Kid tagged with mNeonGreen (hKidFL-mNeonGreen) (natural protein, UniProt Q14807 1-665, looked up)
chain: MAAGGSTQQRRREMAAASAAAISGAGRCRLSKIGATRRPPPARVRVAVRLRPFVDGTAGASDPPCVRGMDSCSLEIANWRNHQETLKYQFDAFYGERSTQQDIYAGSVQPILRHLLEGQNASVLAYGPTGAGKTHTMLGSPEQPGVIPRALMDLLQLTREEGAEGRPWALSVTMSYLEIYQEKVLDLLDPASGDLVIREDCRGNILIPGLSQKPISSFADFERHFLPASRNRTVGATRLNQRSSRSHAVLLVKVDQRERLAPFRQREGKLYLIDLAGSEDNRRTGNKGLRLKESGAINTSLFVLGKVVDALNQGLPRVPYRDSKLTRLLQDSLGGSAHSILIANIAPERRFYLDTVSALNFAARSKEVINRPFTNESLQPHALGPVKLSQKELLGPPEAKRARGPEEEEIGSPEPMAAPASASQKLSPLQKLSSMDPAMLERLLSLDRLLASQGSQGAPLLSTPKRERMVLMKTVEEKDLEIERLKTKQKELEAKMLAQKAEEKENHCPTMLRPLSHRTVTGAKPLKKAVVMPLQLIQEQAASPNAEIHILKNKGRKRKLESLDALEPEEKAEDCWELQISPELLAHGRQKILDLLNEGSARDLRSLQRIGPKKAQLIVGWRELHGPFSQVEDLERVEGITGKQMESFLKANILGLAAGQRCGAS
notes: Kid (KIF22), human, full length; cDNA corresponding to GenBank DQ895829.2; also called hKid-mNeonGreen; hKidFL-mNG; not shown: mNeonGreen, C-terminal, kept
B2: full-length Xenopus Kid tagged with mScarlet (XKidFL-mScarlet) (natural protein, UniProt Q9I869 1-651, looked up)
chain: MVLTGPLQRESVSMAKRVSMLDQHKKSSCARVRVAVRLRPYMDEKDEAKATTVCVRGLDSQSLEIVNWRNQLETMQYQFDAFYGDSASQREIYMGSVCHILPHLLIGQNASVFAYGPTGAGKTHTMLGNPNQPGVIPRAVRDLLQMSRTAASAPENENWTYTINMSYVEIYQEKVMDLLEPKNKDLPIREDKDHNILIPGVTQKMINSFADFDEHFIPASQNRTVASTKLNDRSSRSHAVLLIKVQKSQQVVPFRQLTGKLYLIDLAGSEDNRRTGNQGIRLKESGAINSSLFTLSKVVDALNQGLPRIPYRDSKLTRLLQDSLGGSAHSVMITNIAPEQTYYFDTLTALNFAAKSKQIINKPFSQETTQTVVQPAMKRPREETGHIAGSQKRKKSKNDSTESSPNSSMDTAGKQKLNLATLDPAVVERLLKLDKILTEKGKKKAQLLSTPKRERMALLKKWEESQMEIERLKEKQKELEQKAMEAEARLEKSNNSDLSDSSVSENTFRAPLRGRNTSTAKVKKVLRVLPMQGNSQLQSTVEEGIPVFEKKKKKKQVTCEGLENQPTWEMNMRTDLLESGKERILKLLNTGSVKELKSLQRIGDKKAKLIIGWREVNGPFKNVEELACLEGISAKQVSSFIKANIMSSIAS
notes: Kid (Kif22.S), Xenopus, full length; cDNA corresponding to GenBank BC070549.1; also called XKid-mScarlet; Full-length XKid; not shown: mScarlet, C-terminal, kept
B3: XKid(1-496)-mScarlet (domain or fragment, Xenopus, UniProt Q9I869 1-496, looked up)
chain: MVLTGPLQRESVSMAKRVSMLDQHKKSSCARVRVAVRLRPYMDEKDEAKATTVCVRGLDSQSLEIVNWRNQLETMQYQFDAFYGDSASQREIYMGSVCHILPHLLIGQNASVFAYGPTGAGKTHTMLGNPNQPGVIPRAVRDLLQMSRTAASAPENENWTYTINMSYVEIYQEKVMDLLEPKNKDLPIREDKDHNILIPGVTQKMINSFADFDEHFIPASQNRTVASTKLNDRSSRSHAVLLIKVQKSQQVVPFRQLTGKLYLIDLAGSEDNRRTGNQGIRLKESGAINSSLFTLSKVVDALNQGLPRIPYRDSKLTRLLQDSLGGSAHSVMITNIAPEQTYYFDTLTALNFAAKSKQIINKPFSQETTQTVVQPAMKRPREETGHIAGSQKRKKSKNDSTESSPNSSMDTAGKQKLNLATLDPAVVERLLKLDKILTEKGKKKAQLLSTPKRERMALLKKWEESQMEIERLKEKQKELEQKAMEAEARLEKSNNS
notes: deletion mutant made by PCR-based mutagenesis; also called XKid(1-497); not shown: mScarlet, C-terminal, kept
B4: KIF1A(1-393)LZ (other)
chain: MAGASVKVAVRVRPFNSREMSRDSKCIIQMSGSTTTIVNPKQPKETPKSFSFDYSYWSHTSPEDINYASQKQVYRDIGEEMLQHAFEGYNVCIFAYGQTGAGKSYTMMGKQEKDQQGIIPQLCEDLFSRINDTTNDNMSYSVEVSYMEIYCERVRDLLNPKNKGNLRVREHPLLGPYVEDLSKLAVTSYNDIQDLMDSGNKARTVAATNMNETSSRSHAVFNIIFTQKRHDAETNITTEKVSKISLVDLAGSERADSTGAKGTRLKEGANINKSLTTLGKVISALAEMDSGPNKNKKKKKTDFIPYRDSVLTWLLRENLGGNSRTAMVAALSPADINYDETLSTLRYADRAKQIRCNAVINEDPNNKLIRELKDEVTRLRDLLYAQGLGDITDLEDKVEELLSKNYHLENEVARL

Columns and labels:
[1] = molecular target: KIF1AMD-XKidSt (chimera of the KIF1A motor domain with the neck linker and coiled-coil domain of XKid) (not stated | Xenopus); experiment: SEC; Superdex 200 Increase 10/300 GL on an NGC system; micromolar protein concentrations; UNC-104(1-653)-sfGFP (or mScarlet for XKidCC-mScarlet) run as size marker
[2] = molecular target: the molecule itself; experiment: as above

Molecule | stoichiometry N [1] | stoichiometry N [2]
KIF1AMD-XKidSt (chimera of the KIF1A motor domain with the neck linker and coiled-coil domain of XKid) | 2 | 
B1 |  | 2
B2 |  | 2
B3 |  | 2
B4 |  | 2
